Earlier results in publication PMC6191488.

Molecular target: IgE Fc (Homo sapiens) (UniProt P01854)
Sequence of UniProt P01854 (P01854 104-427): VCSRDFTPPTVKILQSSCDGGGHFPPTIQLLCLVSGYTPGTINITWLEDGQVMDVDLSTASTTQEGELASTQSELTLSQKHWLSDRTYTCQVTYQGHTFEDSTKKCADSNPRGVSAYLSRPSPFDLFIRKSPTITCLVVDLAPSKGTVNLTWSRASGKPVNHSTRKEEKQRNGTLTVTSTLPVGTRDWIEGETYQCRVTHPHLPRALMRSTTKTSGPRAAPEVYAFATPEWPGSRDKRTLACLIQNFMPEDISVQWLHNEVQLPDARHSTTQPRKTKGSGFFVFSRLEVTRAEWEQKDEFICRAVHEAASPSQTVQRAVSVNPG

FcεRI alpha chain ECD (from UniProt P12319)
Kd: 0.37 nM
